How the values were obtained:
[1] = biological target: nucleosome (human histones H2A, H2B, H3.1 and H4 with Widom 601 DNA), P04908;P06899;P68431;P62805; experiment: electrophoretic mobility shift assay; settings: read off a plot
[2] = biological target: the molecule itself; experiment: cryo-EM micrographs; RAD51 alone, without nucleosome and DNA (WT 92.5 µM, K64A/K70A 73.3 µM, R235D 55.2 µM), 1 mM AMP-PNP; 37 °C 30 min, 34 mM HEPES-NaOH pH 7.5, 135 mM NaCl, 1 mM MgCl2; filament formation
[3] = ADP, RAD51 3.6 µM, parent: est. 100
[4] = AMP-PNP, RAD51 1.2 µM, parent: est. 33
[5] = AMP-PNP, RAD51 2.4 µM, parent: est. 92
[6] = AMP-PNP, RAD51 3.6 µM, parent: est. 99

Molecule	response [1, 3] [%]	response [1, 4] [%]	response [1, 5] [%]	response [1, 6] [%]	binding result [2]
human RAD51 (from UniProt Q06609) K64A; K70A	-5	3	20	59	–
RAD51(K64A/K70A) (natural protein, human, RAD51, human; source: E. coli, purified (Ni-NTA agarose, thrombin, spermidine precipitation, MonoQ)) MAMQMQLEANADTSVEEESFGPQPISRLEQCGINANDVKKLEEAGFHTVEAVAYAPKKELINIAGISEAAADKILAEAAKLVPMGFTTATEFHQRRSEIIQITTGSKELDKLLQGGIETGSITEMFGEFRTGKTQICHTLAVTCQLPIDRGGGEGKAMYIDTEGTFRPERLLAVAERYGLSGSDVLDNVAYARAFNTDHQTQLLYQASAMMVESRYALLIVDSATALYRTDYSGRGELSARQMHLARFLRMLLRLADEFGVAVVITNQVVAQVDGAAMFAADPKKPIGGNIIAHASTTRLYLRKGRGETRICKIYDSPCLPEAEAMFAINADGVGDAKD	–	–	–	–	binds
RAD51(R235D) (natural protein, human, RAD51, human; source: E. coli, purified (Ni-NTA agarose, thrombin, spermidine precipitation, MonoQ)) MAMQMQLEANADTSVEEESFGPQPISRLEQCGINANDVKKLEEAGFHTVEAVAYAPKKELINIKGISEAKADKILAEAAKLVPMGFTTATEFHQRRSEIIQITTGSKELDKLLQGGIETGSITEMFGEFRTGKTQICHTLAVTCQLPIDRGGGEGKAMYIDTEGTFRPERLLAVAERYGLSGSDVLDNVAYARAFNTDHQTQLLYQASAMMVESRYALLIVDSATALYRTDYSGDGELSARQMHLARFLRMLLRLADEFGVAVVITNQVVAQVDGAAMFAADPKKPIGGNIIAHASTTRLYLRKGRGETRICKIYDSPCLPEAEAMFAINADGVGDAKD	–	–	–	–	binds

The next lines start with results.

response [1, 3] [%]	response [1, 4] [%]	response [1, 5] [%]	response [1, 6] [%]	Molecule	binding result [2]
-1	26	86	98	human RAD51 (from UniProt Q06609) K64A	–
-9	19	78	93	human RAD51 (from UniProt Q06609) K70A	–

Source: publication PMC10990931, “Cryo-EM structures of RAD51 assembled on nucleosomes containing a DSB site” (Nature, 2024)
